In this assay the target is T1, full length PD-L1 in the form of paramagnetic proteoliposomes (PMPL) (human, UniProt Q9NZQ7 19-290).
T1 construct: whole, on cells; Full length protein in proteoliposomes, not on cells; the form 'whole' is meant; also called proteoliposome-coupled-PD-L1
Kind of assay: phage display panning on PD-L1 proteoliposomes.

T1 sequence (Q9NZQ7 19-290): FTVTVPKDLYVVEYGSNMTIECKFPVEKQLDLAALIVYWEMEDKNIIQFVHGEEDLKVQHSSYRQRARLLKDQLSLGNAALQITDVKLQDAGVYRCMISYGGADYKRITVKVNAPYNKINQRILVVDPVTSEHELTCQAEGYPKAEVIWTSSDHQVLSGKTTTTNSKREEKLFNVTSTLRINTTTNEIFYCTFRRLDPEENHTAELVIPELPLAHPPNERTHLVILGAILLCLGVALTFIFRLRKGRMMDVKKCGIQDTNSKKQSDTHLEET

B1: Ab-46 phage-scFv (scFv, V domains shown, not shown: large carriers; small tags and cut ends)
VH: EVQLVESGAEVKKPGSSVKVSCKVSGGTFGTYALNWVRQAPGQGLEWMGRIVPLIGLVNYAHNFEGRISITADKSTGTAYMELSNLRSDDTAVYYCAREVYGGNSDYWGQGTLVTVSS
VL: NFMLTQPHSVSESPGKTVTISCTRSSGNIGTNYVQWYQQRPGSAPVALIYEDYRRPSGVPDRFSGSIDSSSNSASLIISGLKPEDEADYYCQSYHSSGWEFGGGTKLTVL
notes: also called Ab-46 scFv-phage
B1: the binding result is listed as “binds”.

B2: Ab-56 phage-scFv (scFv, V domains shown, not shown: large carriers; small tags and cut ends)
VH: EVQLVESGAEVMNPGSSVRVSCRGSGGDFSTYAFSWVRQAPGQGLEWMGRIIPILGIANYAQKFQGRVTITADKSTSTAYMELSSLRSDDTAVYYCARDGYGSDPVLWGQGTLVTVSS
VL: NFMLTQPHSVSGSPGKTVTLPCTRSSGSIASHYVQWYQQRPGSAPTTVIYEDNKRPSGVPDRFSGSIDSSSNSASLSISGLKTEDEADYYCQSYDSSNRWVFGGGTKLTVL
notes: also called Ab-56 scFv-phage
As to B2, the binding result was “binds”.
